Reference: patent US20240400708A1
Numbering of substitutions follows the chain as printed. Names may count otherwise. One block for each binder: values may come before it.

Experiments:
[1] = molecular target: feline FcRn complex (FcRn-α subunit and β-microglobulin), biotin labeled (feline); assay: SPR, pH 6
[2] = molecular target: feline FcRn complex (FcRn-α subunit and β-microglobulin), biotin labeled (feline); assay: SPR, pH 7.4

Kd [1]: 1.48 nM | Kd [2]: 5.06 nM
B1: feline IgG1a S252R (antibody, part only; not given: Variable domains, not shown: another chain or arm of the molecule)
constant: ASTTAPSVFPLAPSCGTTSGATVALACLVLGYFPEPVTVSWNSGALTSGVHTFPAVLQASGLYSLSSMVTVPSSRWLSDTFTCNVAHPPSNTKVDKTVRKTDHPPGPKPCDCPKCPPPEMLGGPSIFIFPPKPKDTLRISRTPEVTCLVVDLGPDDSDVQITWFVDNTQVYTAKTSPREEQFNSTYRVVSVLPILHQDWLKGKEFKCKVNSKSLPSPIERTISKAKGQPHEPQVYVLPPAQEELSRNKVSVTCLIKSFHPPDIAVEWEITGQPEPENNYRTTPPQLDSDGTYFVYSKLSVDRSHWQRGNTYTCSVSHEALHSHHTQKSLTQSPGK

Kd [1]: 5.86 nM | Kd [2]: 56.1 nM
B2: feline IgG1a D312K (antibody, part only; not given: Variable domains, not shown: another chain or arm of the molecule)
constant: B1 constant with R138S, D198K

Kd [1]: 15.1 nM | Kd [2]: 4080 nM
B3: feline IgG1a S252Y/S428Y/D312P (antibody, part only; not given: variable domains, not shown: another chain or arm of the molecule)
constant: B1 constant with R138Y, D198P, S316Y

Kd [1]: 6.95 nM | Kd [2]: 8180 nM
B4: feline IgG1a D312A (antibody, part only; not given: Variable domains, not shown: another chain or arm of the molecule; small tags and cut ends)
constant: B1 constant with R138S, D198A

Kd [1]: 7.24 nM | Kd [2]: 311 nM
B5: feline IgG1a D312P/L314K (antibody, part only; not given: Variable domains, not shown: another chain or arm of the molecule)
constant: B1 constant with R138S, D198P, L200K

Kd [1]: 26 nM | Kd [2]: 4190 nM
B6: feline IgG1a S428Y/Q311W/D312P (antibody, part only; not given: Variable domains, not shown: another chain or arm of the molecule)
constant: B1 constant with R138S, Q197W, D198P, S316Y

Kd [1]: 0.138 nM | Kd [2]: 20.7 nM
B7: feline IgG1a S252H/S428M/S434Y (antibody, part only; not given: Variable domains, not shown: another chain or arm of the molecule)
constant: B1 constant with R138H, S316M, S322Y

Kd [1]: 34.1 nM | Kd [2]: 2760 nM
B8: feline IgG1a S428Y/D312P (antibody, part only; not given: Variable domains, not shown: another chain or arm of the molecule; small tags and cut ends)
constant: B1 constant with R138S, D198P, S316Y

Kd [1]: 10.1 nM | Kd [2]: 348 nM
B9: feline IgG1a S428Y/Q311W/L314K (antibody, part only; not given: Variable domains, not shown: another chain or arm of the molecule)
constant: B1 constant with R138S, Q197W, L200K, S316Y

Kd [1]: 1.53 nM | Kd [2]: 37.7 nM
B10: feline IgG1a Q311W/D312P/S434Y (antibody, part only; not given: Variable domains, not shown: another chain or arm of the molecule)
constant: B1 constant with R138S, Q197W, D198P, S322Y

Kd [1]: 8.39 nM | Kd [2]: 989 nM
B11: feline IgG1a S252Y/S434H/Q311W (antibody, part only; not given: variable domains, not shown: another chain or arm of the molecule)
constant: B1 constant with R138Y, Q197W, S322H

Kd [1]: 0.0221 nM | Kd [2]: 2.26 nM
B12: feline IgG1a S252Y/D312P/S434Y (antibody, part only; not given: Variable domains, not shown: another chain or arm of the molecule; small tags and cut ends)
constant: B1 constant with R138Y, D198P, S322Y

Kd [1]: 6.15 nM | Kd [2]: 1370 nM
B13: feline IgG1a S252F/S434W (antibody, part only; not given: Variable domains, not shown: another chain or arm of the molecule)
constant: B1 constant with R138F, S322W

Kd [1]: 4.65 nM | Kd [2]: 235 nM
B14: feline IgG1a S428Y/S434Y (antibody, part only; not given: Variable domains, not shown: another chain or arm of the molecule)
constant: B1 constant with R138S, S316Y, S322Y

Kd [1]: 0.433 nM | Kd [2]: 14.4 nM
B15: feline IgG1a S434Y (antibody, part only; not given: Variable domains, not shown: another chain or arm of the molecule)
constant: B1 constant with R138S, S322Y

Kd [1]: 6.04 nM | Kd [2]: 25 nM
B16: feline IgG1a S252H/Q311W (antibody, part only; not given: Variable domains, not shown: another chain or arm of the molecule; small tags and cut ends)
constant: B1 constant with R138H, Q197W

Kd [1]: 3.59 nM | Kd [2]: 398 nM
B17: feline IgG1a S252F/S434R (antibody, part only; not given: Variable domains, not shown: another chain or arm of the molecule; small tags and cut ends)
constant: B1 constant with R138F, S322R

Kd [1]: 8.22 nM | Kd [2]: 330 nM
B18: feline IgG1a S252H/S428M/D312P (ID No. 221) (antibody, part only; not given: Variable domains, not shown: another chain or arm of the molecule)
constant: B1 constant with R138H, D198P, S316M

Kd [1]: 173 nM | Kd [2]: 2350 nM
B19: feline IgG1a S252F/S434F (antibody, part only; not given: Variable domains, not shown: another chain or arm of the molecule)
constant: B1 constant with R138F, S322F

Kd [1]: 22.6 nM | Kd [2]: 1800 nM
B20: feline IgG1a D312P/S434Y (antibody, part only; not given: Variable domains, not shown: another chain or arm of the molecule)
constant: B1 constant with R138S, D198P, S322Y

Kd [1]: 0.771 nM | Kd [2]: 21.6 nM
B21: feline IgG1a S434W (antibody, part only; not given: Variable domains, not shown: another chain or arm of the molecule)
constant: B1 constant with R138S, S322W

Kd [1]: 12.7 nM | Kd [2]: 7630 nM
B22: feline IgG1a S428Y/Q311W (antibody, part only; not given: Variable domains, not shown: another chain or arm of the molecule)
constant: B1 constant with R138S, Q197W, S316Y

Kd [1]: 7.45 nM | Kd [2]: 55.6 nM
B23: feline IgG1a S252H/S428M/S434P (antibody, part only; not given: Variable domains, not shown: another chain or arm of the molecule)
constant: B1 constant with R138H, S316M, S322P

Kd [1]: 7.93 nM | Kd [2]: 23300 nM
B24: feline IgG1a S252Y/S428Y/L314K (antibody, part only; not given: Variable domains, not shown: another chain or arm of the molecule)
constant: B1 constant with R138Y, L200K, S316Y

Kd [1]: 26.7 nM | Kd [2]: 1820 nM
B25: feline IgG1a S252Y/D312P/L314K (antibody, part only; not given: Variable domains, not shown: another chain or arm of the molecule)
constant: B1 constant with R138Y, D198P, L200K

Kd [1]: 12.1 nM | Kd [2]: 36.5 nM
B26: feline IgG1a S252H/Q311Y (antibody, part only; not given: variable domains and light chain, not shown: another chain or arm of the molecule; small tags and cut ends)
constant: B1 constant with R138H, Q197Y

Kd [1]: 0.0496 nM | Kd [2]: 2.85 nM
B27: feline IgG1a S252Y/L314K/S434Y (antibody, part only; not given: Variable domains, not shown: another chain or arm of the molecule; small tags and cut ends)
constant: B1 constant with R138Y, L200K, S322Y

Kd [1]: 3.8 nM | Kd [2]: 1510 nM
B28: feline IgG1a S428Y/Q311W/S434Y (antibody, part only; not given: Variable domains, not shown: another chain or arm of the molecule; small tags and cut ends)
constant: B1 constant with R138S, Q197W, S316Y, S322Y

Kd [1]: 0.121 nM | Kd [2]: 26.9 nM
B29: feline IgG1a S252H/S428M/S434F (antibody, part only; not given: Variable domains, not shown: another chain or arm of the molecule)
constant: B1 constant with R138H, S316M, S322F

Kd [1]: 26.9 nM | Kd [2]: 953 nM
B30: feline IgG1a S252Y/Q311W (antibody, part only; not given: Variable domains, not shown: another chain or arm of the molecule)
constant: B1 constant with R138Y, Q197W

Kd [1]: 9.28 nM | Kd [2]: 1470 nM
B31: feline IgG1a S252F/S434Y (antibody, part only; not given: Variable domains, not shown: another chain or arm of the molecule)
constant: B1 constant with R138F, S322Y

Kd [1]: 10.2 nM | Kd [2]: 8380 nM
B32: feline IgG1a S252Y/S434W (antibody, part only; not given: Variable domains, not shown: another chain or arm of the molecule)
constant: B1 constant with R138Y, S322W

Kd [1]: 6.59 nM | Kd [2]: 2190 nM
B33: feline IgG1a S252Y/S434W/Q311W (antibody, part only; not given: Variable domains, not shown: another chain or arm of the molecule)
constant: B1 constant with R138Y, Q197W, S322W

Kd [1]: 244 nM | Kd [2]: 7430 nM
B34: feline IgG1a L314K/S434Y (antibody, part only; not given: Variable domains, not shown: another chain or arm of the molecule)
constant: B1 constant with R138S, L200K, S322Y

Kd [1]: 10.8 nM | Kd [2]: 179 nM
B35: feline IgG1a S252Y/Q311W/L314K (antibody, part only; not given: Variable domains, not shown: another chain or arm of the molecule)
constant: B1 constant with R138Y, Q197W, L200K

Kd [1]: 3.47 nM | Kd [2]: 55.8 nM
B36: feline IgG1a Q311W/L314K (antibody, part only; not given: Variable domains, not shown: another chain or arm of the molecule)
constant: B1 constant with R138S, Q197W, L200K

Kd [1]: 1.48 nM | Kd [2]: 864 nM
B37: feline IgG1a S428Y/D312P/S434Y (antibody, part only; not given: Variable domains, not shown: another chain or arm of the molecule; small tags and cut ends)
constant: B1 constant with R138S, D198P, S316Y, S322Y

Kd [1]: 0.143 nM | Kd [2]: 4.44 nM
B38: feline IgG1a S252Y/S434R/Q311W (antibody, part only; not given: Variable domains, not shown: another chain or arm of the molecule)
constant: B1 constant with R138Y, Q197W, S322R

Kd [1]: 0.793 nM | Kd [2]: 17.2 nM
B39: feline IgG1a S428Y/L314K/S434Y (antibody, part only; not given: Variable domains, not shown: another chain or arm of the molecule)
constant: B1 constant with R138S, L200K, S316Y, S322Y

Kd [1]: 3.9 nM | Kd [2]: 26.7 nM
B40: feline IgG1a S252H/D312P (antibody, part only; not given: variable domains, not shown: another chain or arm of the molecule; small tags and cut ends)
constant: B1 constant with R138H, D198P

Kd [1]: 8.59 nM | Kd [2]: 3.55 nM
B41: feline IgG1a S252H/S428M/S434L (antibody, part only; not given: Variable domains, not shown: another chain or arm of the molecule)
constant: B1 constant with R138H, S316M, S322L

Kd [1]: 6.37 nM | Kd [2]: 20 nM
B42: feline IgG1a S252H/L314K (antibody, part only; not given: Variable domains, not shown: another chain or arm of the molecule; small tags and cut ends)
constant: B1 constant with R138H, L200K

Kd [1]: 35.2 nM | Kd [2]: 1130 nM
B43: feline IgG1a S252Y/Q311W/D312P (antibody, part only; not given: Variable domains, not shown: another chain or arm of the molecule)
constant: B1 constant with R138Y, Q197W, D198P

Kd [1]: 2.65 nM | Kd [2]: 101 nM
B44: feline IgG1a S252H/S428M (antibody, part only; not given: Variable domains, not shown: another chain or arm of the molecule; small tags and cut ends)
constant: B1 constant with R138H, S316M

Kd [1]: 1.19 nM | Kd [2]: 16.3 nM
B45: feline IgG1a S434R (antibody, part only; not given: Variable domains, not shown: another chain or arm of the molecule)
constant: B1 constant with R138S, S322R

Kd [1]: 15.2 nM | Kd [2]: 6860 nM
B46: feline IgG1a S428Y/D312P/L314K (antibody, part only; not given: Variable domains, not shown: another chain or arm of the molecule)
constant: B1 constant with R138S, D198P, L200K, S316Y

Kd [1]: 0.135 nM | Kd [2]: 20.8 nM
B47: feline IgG1a S252H/S428M/S434W (antibody, part only; not given: Variable domains, not shown: another chain or arm of the molecule)
constant: B1 constant with R138H, S316M, S322W

Kd [1]: 5.73 nM | Kd [2]: 141 nM
B48: feline IgG1a S252H/S428M/Q311Y (antibody, part only; not given: Variable domains, not shown: another chain or arm of the molecule)
constant: B1 constant with R138H, Q197Y, S316M

Kd [1]: 4.12 nM | Kd [2]: 10900 nM
B49: feline IgG1a S252Y/S434R (antibody, part only; not given: Variable domains, not shown: another chain or arm of the molecule; small tags and cut ends)
constant: B1 constant with R138Y, S322R

Kd [1]: 3.14 nM | Kd [2]: 54.6 nM
B50: feline IgG1a S252H/S428M/Q311W (antibody, part only; not given: Variable domains, not shown: another chain or arm of the molecule)
constant: B1 constant with R138H, Q197W, S316M

Kd [1]: 7.63 nM | Kd [2]: 1850 nM
B51: feline IgG1a S428Y/L314K (antibody, part only; not given: Variable domains, not shown: another chain or arm of the molecule)
constant: B1 constant with R138S, L200K, S316Y

Kd [1]: 0.391 nM | Kd [2]: 24.1 nM
B52: feline IgG1a S252H/S434F (antibody, part only; not given: Variable domains, not shown: another chain or arm of the molecule)
constant: B1 constant with R138H, S322F

Kd [1]: 2.76 nM | Kd [2]: 50.3 nM
B53: feline IgG1a Q311W/D312P (antibody, part only; not given: Variable domains, not shown: another chain or arm of the molecule)
constant: B1 constant with R138S, Q197W, D198P
